According to paper PMC9739371, “Deciphering the Binding of the Nuclear Localization Sequence of Myc Protein to the Nuclear Carrier Importin α3” (International Journal of Molecular Sciences, 2022):
Several values for one entry are separate records, joined by “and”; a condition that tells them apart may be missing. Equal values may be shown once.

Legend:
[1] = target: T1, IBB-depleted species of importin α3 (residues 64-521 of the intact protein) (human, UniProt O00629 64-521); assay: BLI; BLItz system; His-tagged Impα3 or ΔImpα3 immobilised on His-tag biosensors at 0.5 µM; NLS-Myc 1 to 7 µM in solution; 10x kinetics buffer of the manufacturer; 25 °C; kon and koff from a pseudo-first-order plot; conditions: both partners purified
T1 construct: also called ΔImpα3; truncated species of Impα3; source: purified as previously described [18,19,20]
T1 sequence (looked up): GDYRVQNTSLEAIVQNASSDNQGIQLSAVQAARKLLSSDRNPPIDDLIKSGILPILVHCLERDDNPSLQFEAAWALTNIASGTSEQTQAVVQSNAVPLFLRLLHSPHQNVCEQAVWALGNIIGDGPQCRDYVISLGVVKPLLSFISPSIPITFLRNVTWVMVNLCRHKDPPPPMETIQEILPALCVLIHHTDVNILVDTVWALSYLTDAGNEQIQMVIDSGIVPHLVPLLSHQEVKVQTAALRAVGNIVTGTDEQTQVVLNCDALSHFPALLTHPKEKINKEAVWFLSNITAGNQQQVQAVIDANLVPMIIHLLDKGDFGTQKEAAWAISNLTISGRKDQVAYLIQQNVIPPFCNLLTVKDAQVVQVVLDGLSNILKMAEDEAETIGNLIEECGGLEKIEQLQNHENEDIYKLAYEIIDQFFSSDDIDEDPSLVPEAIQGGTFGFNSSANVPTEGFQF

[2] = target: T2, human importin α3 isoform (residues 1-521) (human, UniProt O00629 1-521); assay: as above; conditions: both partners purified
T2 construct: importin α3 (Impα3), human, residues 1-521, with the N-terminal IBB domain; also called Impα3; source: purified as previously described [18,19,20]
T2 sequence (looked up): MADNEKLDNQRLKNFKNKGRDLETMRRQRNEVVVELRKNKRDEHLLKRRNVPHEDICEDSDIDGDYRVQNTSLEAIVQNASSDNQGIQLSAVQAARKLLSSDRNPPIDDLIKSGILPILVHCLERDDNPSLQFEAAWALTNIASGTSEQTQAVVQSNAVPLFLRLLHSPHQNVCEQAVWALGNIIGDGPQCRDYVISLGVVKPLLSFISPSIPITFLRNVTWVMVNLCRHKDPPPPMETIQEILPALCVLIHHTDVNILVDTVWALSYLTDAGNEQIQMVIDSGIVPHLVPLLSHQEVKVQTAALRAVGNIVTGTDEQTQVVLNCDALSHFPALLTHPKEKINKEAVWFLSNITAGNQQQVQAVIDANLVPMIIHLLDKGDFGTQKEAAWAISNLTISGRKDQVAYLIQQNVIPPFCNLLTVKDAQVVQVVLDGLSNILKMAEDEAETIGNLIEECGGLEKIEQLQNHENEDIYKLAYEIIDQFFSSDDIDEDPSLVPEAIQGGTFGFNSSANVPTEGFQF

B1: NLS-Myc peptide (Ala310-Asn339 of human c-Myc) (peptide)
peptide: AAPPSTRKDYPAAKRVKLDSVRVLRQISNN
notes: human c-Myc, residues Ala310-Asn339: canonical NLS Pro320-Asp328 with the flanking residues of native Myc; also called the peptide; source: synthetic peptide, produced by NZYtech (Lisbon, Portugal), purity larger than 95%
[1]
  Kd: 0.06 ± 0.03 µM
[2]
  Kd: 0.5 µM and 0.6 µM
